Data: the DeepSol protein solubility set

Test: soluble on expression in E. coli; label from the status in PepcDB or PDB records

Sequence | soluble on expression in E. coli
MSCCFSKKLFGRRSKREDRYKVSEDAVPKPEEGGEPPKYSWDRREKVNAEDFTIANIHNTTLKKESKDGGPLQMENCTDSTILYLYQTSQVIIDDCRHCTIVLGPAAGSVFVRDCANCTIFTSCQQLRTRDCTSIRISILCPTEPIVENSSDIHFFHLAMRYPELKDQMHAVGLRPFTNRIASVHDFTPAGVNGKGNFRVTPEVVQISDGQEEILRAKGVILKPSPADFIPRFTDTTDPDPTFLYVLGKSEPVDELGDRAIELLHAIYKSGMQVMGTCDLETSTVDSKLVPFAGQAERMILFQLKGNLANLECDVEFDVMSENDLVPLRNLLIHLEGKKNG | not soluble
MSRFNPSPVSLSVTLGLMFSASAFAQDATKTDETMVVTAAGYAQVIQNAPASISVISREDLESRYYRDVTDALKSVPGVTVTGGGDTTDISIRGMGSNYTLILVDGKRQTSRQTRPNSDGPGIEQGWLPPLQAIERIEVIRGPMSTLYGSDAIGGVINIITRKDQQQWSGNVQLSTVVQENRASGDEQSANFFVTGPLSDALSLQVYGQTTQRDEDEIEHGYGDKSLRSLTSKLNYQLNPDHQLQLEAGVSAQDRENNVGKSAQSSGCRGTCSNTDNQYRRNHVAVSHQGDWQDVGQSDTYLQYEENTNKSREMSIDNTVFKSTLVAPIGEHMLSFGVEGKHESLEDKTSNKISSRTHISNTQWAGFIEDEWALAEQFRLTFGGRLDHDKNYGSHFSPRVYGVWNLDPLWTVKGGVSTGFRAPQLREVTPDWGQVSGGGNIYGNPDLKPETSINKELSLMYSTGSGLAASLTAFHNDFKDKITRVACPANICTAGPNQWGAAPTYRVNIDEAETYGAEATLSLPITESVELSSSYTYTHSEQKSGNFAGRPLLQLPKHLFNANLSWQTTDRLNSWANLNYRGKEMQPEGGASNDDFIAPSYTFIDTGVTYALTDTATIKAAVYNLFDQEVNYAEYGYVEDGRRYWLGLDIAF | not soluble
MSEEKIYDVIIIGAGPAGMTAAVYTSRANLSTLMLERGIPGGQMANTEDVENYPGYESILGPDLSNKMFEHAKKFGAEYAYGDVKEVIDGKEYKTIIAGKKEYKARAIIVASGAEYKKIGVPGETELGGRGVSYCAVCDGAFFKGKELVVIGGGDSAVEEGVFLTRFASKVTIVHRRDTLRAQKILQDRAFQNEKVDFIWNHTIKEINEANGKVGSVTLVDVNSGEEKEVKTDGVFVYIGMLPLSKPFVELGITNENGYLETNERMETKVPGIFAAGDVREKMLRQIVTATGDGSIAAQSAQHYVEELLEELKTVSEK | not soluble
MSPIMARKPQIQAEQLAQKFVEKPEEQKDKQAVQKGQQLEGAKRWVADSELREQPVNSMQQVEHGPKAVILADDACWQTQRRVPAEIQLPQVGKISIPELSEKEIQRTIVAQPASYHKVQWNEFPEEPKYEIGAVPKTKTQDWVPVNNEQNELQRSIYKPARMSAVWPPPQDELVKDGHSPLVVKANEDTAWIQQDQNGVLKQAVWGKTSRINRVWPPPENESTLSDFGPQHMPVVQWPPPEAEAHEREQVEVLQKHIPTKKMERQWPPPPPQYQVVESSGEIETRYNPAEVDQQQQAVNSLRMGHIQA | not soluble
MEKIIEVNSVSKTFKHKKAVNNVSFHVNKGEIVALLGPNGAGKTTTMSMMLGLKDPTEGTVSIFGKNPKHRDVRNSLGAMLQEVSVIDSITVEEAIELFRSYYTNPVAKETLLQLSNLELERKQRCEKLSGGQKRRLNFALALAGNPDLLFLDEPTVGMDITSRRTFWETIRKLVSEGKTIILTTHYLEEADALADRILLFVNGKIIADGTPDEMKATISRKTISFYSKESIPAKLLKELPNVTEVQAKEGHFTLTTEDTDATLKAIYQKNLPVTDVSVERGSLDEAFEQFVANQKEEIA | not soluble
MQPLERSLTGAVGAALAAAGLRSRSGLEKVVLTGLGAGLIAVAARGQNPLATALKIEQNDEGETVVRDAVTIGKPAEQLYAVWRDLPGLPLLMTHLRSVEVLDDKRSRWTVEAPAPLGTVSWEAELTADEPGKRIAWRSLPGARIENSGEVLFRPAPGARGTEVVVRLTYRPPGGSAGAVIARMFNQEPSQQLRDDLMRFKREQELGLEHHHHHH | not soluble
MYAGINYDQLFGTEQVRERQLPLHSSQAQHFLNEVKPILDNRCVVCHACYDAPCQLKMTSAEGIDRGASKALVYQGTRLTAATPTRLYEDAQLTQEWRAAGFHPVLNERNQTAQANLDAGVMARLLMQKERHPLPQQDQLQGFDFSIDREQTCPTINEMDHFEQVNPNWGMPFGMPNLSPKEYTTLLSWLQEGAVMNQALPLSAQEQALVTEYEALLNHSSRKNQLAARYIYEHLFLSHLYFSEIAQERPRFFKLIRSSTPPGEPVKRIVTRRPYDDPGVERVYYRLVPEQETIVDKTHMPFALNKQRIANWKLWFIDADYEVAELPSYRPDIAANPMSAFIDLPVKARFKFLLDNAQNTVMAFIKGPVCRGQLALNVINDRFWVFFLDPEKADLPEVNEFYRSQVNNLKLPAEQENTALPLSNWVRYSLQQSRYLEAKSEFINQWFKNGTHLTTDIIWDGAGINPNAALTIFRHFDSASVVQGLVGEPPKTAWIMDYALLERIHYLLVAGFDVYGNFGHQLITRMFMDFLRMEGESNFVALLPRDMRHQELSSWYQNQSVQFSDFLQRNVKPFDQPTSVNYVTDNPKQELFAKLRKQVQSVLSDRYVITQTGFKAEHEFALRQIDHLRGEGLLPIPQLMMLMIESEQGKPQLFTLIHNNAHTNISSLFDEQNNRDPKNDNLTLVRGVVGSYPSAYLTLKENQIPELYQRLAAMKSEQDYVALLDRFAVRRSSPEFWAFSDLVHQWYRQDQPIEFGLLDYNRFENRLEHHHHHH | not soluble
MGHHHHHHSHMRVFALQLESFKENLMQSLFNSIPKKSVIVLPEYVINPFFHHNMGLDVNEISDQSARAVEFLSQKCEELDLIVSAPVLLEEHSKIYKKIALISKESVKYYTQQRLIPYPHWDEESFFDNEKSAFKELLVFERDGLKFAPLFGFEAHFDEIWVQAKNQGVDVVLLSSVATFESNERWRLLCQMRAFCASCVVVRANRIGAYRQIIVEEDQKNEFLWKFYGDSFVALPNGAIEDSLEGKMGALNAQIDKNDIDEWAKLWHFRTIKEG | soluble
KYIDRAGKLAYDSHIAYHRIKGLSQTVLERVQEAVVVINAEGLAVLFNRKAKDLFPALEIGRRAGLSDSAAELWDQASPHTFEYVLGTPGLNAGIRAVPVNKGSDKLLILYIRPQSEIQAEALSVKLAALGQLTANLAHEIRNPMSAIRHANDLLRENMEAGAADPFNAKLCKIIDGNICRIDKMLEDISSLNKRNKTERETIGLIPFWEEFKQEFLLGHPDAADCIRPDIQGGSPTAYFDPAHLRQIMWNLANNAWRHSRKQPGSISVTIRPAQKNTVCILFADRPKCRNTCSNPFTPRRKTAPASGCMSPANWRTPISAI | not soluble
MAHHHHHHVDDDDKMVPYTVRFTTTARRDLHKLPPRILAAVVEFAFGDLSREPLRVGKPLRRELAGTFSARRGTYRLLYRIDDEHTTVVILRVDHRADIYRR | soluble
MSLEFGRELPGKRDPQARLKDYKELYLDFSATQIKNQAARCMNCGVPFCHSGCPLGNIIPEFNDAVYRNDWEEAAEILFSTNNFPEFTGRICPAPCEASCVLGINKPPVTIENIEKSIVETAFEKGILKPNPPKKRTGKTVAVVGSGPAGLAAAAQLNSAGHTVTVFERADQVGGLLRYGIPDFKLEKWVIDRRVKLMEEEGVIFKTNTNVGVTVKAKDIVKEFDAVVLTGGSTVGRDLPIPGRQFKGVHFAMEFLSQQNKRVANIKPEIDHTGEAYKNGDLLATAKNVVVIGGGDTGSDCVGTSNRHGAKSVLQFELMPKPPENKNETTPWPNWPMILRTSTSHEEGCDRLWSITTKEFIGDADGNLTGLKIAEMGWVTAPDSKLPKYQELPGTERVIPCELTLLAMGFLHPQHAGMLNELGVEYDERGNIKANGKYQTNVDKVFTAGDMRRGQSLVVWAISEGREAARNVDIFLMGTTSLEAKDHGMLDTVYAEGHHHHHH | soluble
MSDILLGKLATEFKTVKAMVEVYCHDHHGTKDALCSECRELLEYAEVRLDRCPYGEEKPTCNKCPIHCYKPEPKEQMRLVMRYSGPRMLLKHPILAVRHLLHEKREVPEKPAANASNRHKRINAERDT | not soluble
